Data from article PMC6237275.

Target: His–CtBP1 (UniProt Q13363)
Experiment: SEC

His–CtBP1 (from UniProt Q13363 1-440) (natural protein)
stoichiometry N: 2
